Test results taken from US20230235074A1 (University of Texas, published 2023).
Values belong to the molecule of their own block, whether it stands above or below them.

How the values were obtained:
[1] = molecular target: Recombinant human BST2 protein (Catalog number 13370-H07H, Sino Biological) (human) (UniProt Q10589); assay: BLI (Octet RED384), mAb 5 ug/ml captured on anti-mouse IgG Fc (AMC) biosensors, BST2 protein 15.625-1000 nM, 1:1 model, global fit
[2] = molecular target: BST2 in human tissue microarray cores; assay: immunohistochemistry, tissue microarray #72070, antigen retrieval H1; BIDC stroma: 0 positive of 40 tested specimens
BST2 in human tissue microarray cores, sequence (chain, as listed by the source limits assumed): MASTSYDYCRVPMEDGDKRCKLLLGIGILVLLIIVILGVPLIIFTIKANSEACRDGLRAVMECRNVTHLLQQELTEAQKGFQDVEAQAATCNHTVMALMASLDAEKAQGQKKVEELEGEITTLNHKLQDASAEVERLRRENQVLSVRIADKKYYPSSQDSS

[3] = molecular target: BST2 as expressed endogenously on the surface of human cell lines (B-LCL, MM1, U266, MCF-10A, MCF7, MDA-MB-231, T47D) (human) (UniProt Q10589); assay: flow cytometry on B-LCL cells, mAb 1 ug/ml
BST2 as expressed endogenously on the surface of human cell lines (B-LCL, MM1, U266, MCF-10A, MCF7, MDA-MB-231, T47D) (human), sequence (Q10589 1-161, stated change not applied): as the sequence (chain, as listed by the source limits assumed) above

[4] = molecular target: BST2 as expressed endogenously on the surface of human cell lines (B-LCL, MM1, U266, MCF-10A, MCF7, MDA-MB-231, T47D) (human) (UniProt Q10589); assay: flow cytometry dot plot, T47D-NS (non-silencing transduction) cells, 26F8 at 2 ug/ml and APC-conjugated secondary antibody; Q3 6.94, Q4 21.4
[5] = molecular target: BST2 as expressed endogenously on the surface of human cell lines (B-LCL, MM1, U266, MCF-10A, MCF7, MDA-MB-231, T47D) (human) (UniProt Q10589); assay: flow cytometry dot plot, T47D cells transduced with BST2-silencing shRNA, 26F8 at 2 ug/ml and APC-conjugated secondary antibody
[6] = molecular target: BST2 as expressed endogenously on the surface of human cell lines (B-LCL, MM1, U266, MCF-10A, MCF7, MDA-MB-231, T47D) (human) (UniProt Q10589); assay: flow cytometry on MCF-10A cells, mAb 1 ug/ml
[7] = molecular target: BST2 in human tissue microarray cores; assay: immunohistochemistry, tissue microarray #72070, antigen retrieval H1; Breast stroma: 0 positive of 8 tested specimens
[8] = molecular target: BST2 as expressed endogenously on the surface of human cell lines (B-LCL, MM1, U266, MCF-10A, MCF7, MDA-MB-231, T47D) (human) (UniProt Q10589); assay: flow cytometry on MM1 cells, mAb preincubated with recombinant BST2 protein as competitor
[9] = molecular target: BST2 as expressed endogenously on the surface of human cell lines (B-LCL, MM1, U266, MCF-10A, MCF7, MDA-MB-231, T47D) (human) (UniProt Q10589); assay: flow cytometry on MM1 cells, mAb preincubated with Spartan protein
[10] = molecular target: BST2 as expressed endogenously on the surface of human cell lines (B-LCL, MM1, U266, MCF-10A, MCF7, MDA-MB-231, T47D) (human) (UniProt Q10589); assay: flow cytometry dot plot, T47D cells transduced with BST2-silencing shRNA, 26F8 at 2 ug/ml and APC-conjugated secondary antibody; Q3 58.1, Q4 26.6
[11] = molecular target: BST2 as expressed endogenously on the surface of human cell lines (B-LCL, MM1, U266, MCF-10A, MCF7, MDA-MB-231, T47D) (human) (UniProt Q10589); assay: flow cytometry on T47D cells, mAb 1 ug/ml
[12] = molecular target: BST2 as expressed endogenously on the surface of human cell lines (B-LCL, MM1, U266, MCF-10A, MCF7, MDA-MB-231, T47D) (human) (UniProt Q10589); assay: flow cytometry dot plot, T47D-WT cells, 26F8 at 2 ug/ml and APC-conjugated secondary antibody; Q4 (unstained) 2.71
[13] = molecular target: BST2 medium isoform (BST2-H, 158 amino acids) expressed on HEK293 transfectants; assay: flow cytometry, mAb 1 ug/ml on HEK293-medium cells
[14] = molecular target: BST2 in human tissue microarray cores; assay: immunohistochemistry, tissue microarray #72070, antigen retrieval H1; Placenta: 0 positive of 1 tested specimen
[15] = molecular target: BST2 as expressed endogenously on the surface of human cell lines (B-LCL, MM1, U266, MCF-10A, MCF7, MDA-MB-231, T47D) (human) (UniProt Q10589); assay: flow cytometry on U266 cells, mAb 1 ug/ml
[16] = molecular target: BST2 as expressed endogenously on the surface of human cell lines (B-LCL, MM1, U266, MCF-10A, MCF7, MDA-MB-231, T47D) (human) (UniProt Q10589); assay: flow cytometry on MM1 cells, mAb 1 ug/ml
[17] = molecular target: BST2 long isoform (BST2-D, full length BST2, 180 amino acids) expressed on HEK293 transfectants (human) (UniProt Q10589); assay: flow cytometry, HEK293 long transfectant, 1 ug/ml antibody, APC-conjugated secondary antibody
BST2 long isoform (BST2-D, full length BST2, 180 amino acids) expressed on HEK293 transfectants (human), sequence (Q10589 1-161 limits assumed): as the sequence (chain, as listed by the source limits assumed) above

[18] = molecular target: BST2 as expressed endogenously on the surface of human cell lines (B-LCL, MM1, U266, MCF-10A, MCF7, MDA-MB-231, T47D) (human) (UniProt Q10589); assay: flow cytometry, MCF7 cells, APC-conjugated secondary antibody (the text prints 34.7% for the same panel)
[19] = molecular target: BST2 in human tissue microarray cores; assay: immunohistochemistry, tissue microarray #78070 (normal tissues), antigen retrieval H1; Parenchymal: 0 positive of 7 tested
[20] = molecular target: BST2 as expressed endogenously on the surface of human cell lines (B-LCL, MM1, U266, MCF-10A, MCF7, MDA-MB-231, T47D) (human) (UniProt Q10589); assay: flow cytometry on MCF7 cells, mAb 1 ug/ml
[21] = molecular target: BST2 in human tissue microarray cores; assay: immunohistochemistry, tissue microarray #72070, antigen retrieval H1; Placenta stroma: 0 positive of 1 tested specimen
[22] = molecular target: BST2 as expressed endogenously on the surface of human cell lines (B-LCL, MM1, U266, MCF-10A, MCF7, MDA-MB-231, T47D) (human) (UniProt Q10589); assay: flow cytometry on MDA-MB-231 cells, mAb 1 ug/ml
[23] = molecular target: BST2 in human tissue microarray cores; assay: immunohistochemistry, tissue microarray #72070, antigen retrieval H1; Normal breast: 0 positive of 8 tested specimens
[24] = molecular target: BST2 as expressed endogenously on the surface of human cell lines (B-LCL, MM1, U266, MCF-10A, MCF7, MDA-MB-231, T47D) (human) (UniProt Q10589); assay: flow cytometry dot plot, T47D-NS (non-silencing transduction) cells, 26F8 at 2 ug/ml and APC-conjugated secondary antibody
[25] = molecular target: BST2 as expressed endogenously on the surface of human cell lines (B-LCL, MM1, U266, MCF-10A, MCF7, MDA-MB-231, T47D) (human) (UniProt Q10589); assay: flow cytometry on MM1 cells, mAb not preincubated
[26] = molecular target: T1, BST2 long isoform (BST2-D, full length BST2, 180 amino acids) expressed on HEK293 transfectants (human, UniProt Q10589 1-161); assay: flow cytometry, hybridoma supernatant on HEK293-long cells
T1 construct: also called HEK293-long; HEK293 WT-BST2
T1 sequence (Q10589 1-161 limits assumed): as the sequence (chain, as listed by the source limits assumed) above
Method: For flow cytometry assays, cells were detached using 0.05% trypsin-EDTA, counted, washed and resuspend with FACS Buffer (PBS, 2% FBS, 2 mM EDTA). 2×10⁵ cells in 100 ul/well were placed in U-bottom 96-well plate and centrifuged (1000 RPM/3 min/4° C.). The buffer was discarded and 100 ul of the previously collected supernatants with selected monoclonal antibodies were added to the wells and incubated on ice for 30 minutes. After incubation, the plate was washed three times with FACS buffer and 50 ul of diluted (1/250) secondary antibody (Donkey anti-mouse Allophycocyanin (APC) conjugated) were added to the wells and incubated on ice for 20 minutes protected from light. The final wash was repeated 4 times, and the samples were transferred and analyzed at the South Campus Flow Cytometry & Cell Sorting Core Laboratory at MD Anderson Cancer Center. FACS data were analyzed with FlowJo™ Software—for Windows (Version 10.6.1. Ashland, Oreg.: Becton, Dickinson and Company; 2020).

[27] = molecular target: T2, BST2 long isoform peptide (BST2-D peptide), positions 133-156 (human); assay: ELISA dilution assay, plate coated with BST2 peptide alone, hybridoma supernatant undiluted and 1/15, 1/225, 1/3375, OD 450 nm (axis unlabelled on the sheet)
T2 construct: Synthetic 24-mer; the free peptide (not KLH conjugated) coated the ELISA plates; also called BST2-Long (D) peptide; BST2 peptide
T2 peptide: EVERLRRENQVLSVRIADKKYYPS
Method: FIG. 5. Dilution assay. 26 positive clones were tested at serial dilutions as described under methods. Sixteen clones with the highest OD450 nm signal (those with squares around their names) were selected for further characterization. LA1-LA16 are clones picked at the first round of colony pickup; BM1-BM10 clones picked at the second round of colony pickup. PC is the positive control using anti-BST2 mAb (Clone 26F8) 1 ug/ml which recognizes all isoforms. Plates were coated with BST2 peptide alone.
To select the hybridomas capable of producing specific monoclonal antibodies against the BST2-D peptide, ELISA was performed. ELISA plates were coated with a 100 ul coating buffer, containing the BST2-D peptide in a concentration of 1 ug/ml, and incubated overnight at 4° C. Next day, ELISA plates were washed three times with PBST (PBS containing 0.05% v/v Tween®-20) and blocked with 100 ul of blocking buffer (PBS, 1% w/v BSA). After 1-hour blocking at room temperature, 50 ul supernatant from each of the 563 colonies were added to individual wells as the primary antibodies. Anti-BST2 mAb (Clone 26F8) [eBioscience] was used as a positive control and blank wells with secondary antibody only were performed in triplicates. Incubation proceeded for 1 hour followed by three washes. […] The reaction was stopped with H₂SO₄ 0.2N and the OD absorbance values were read at 450 nm. […]

Recombinant human BST2 protein (Catalog number 13370-H07H, Sino Biological) (human), sequence (Q10589 49-161 limits assumed): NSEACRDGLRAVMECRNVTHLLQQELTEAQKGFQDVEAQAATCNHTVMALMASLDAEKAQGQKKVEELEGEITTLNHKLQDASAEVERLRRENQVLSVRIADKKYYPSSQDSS

Kd [1]: 34.2 nM | koff [1]: 0.00132 s⁻¹ | kon [1]: 38600 M⁻¹ s⁻¹ | detectable rate (% of tested specimens positive) [2]: 0% | percentage of cell staining [3]: 99.7% | percent of cells in quadrant Q2 (APC positive, GFP positive) [4]: 58.5% | percent of cells in quadrant Q1 (APC positive, GFP negative) [5]: 6.09% | percentage of cell staining [6]: 27.7% | detectable rate (% of tested specimens positive) [7]: 0% | percentage of stained cells [8]: 2.6% | percentage of stained cells [9]: 98.1% | percent of cells in quadrant Q2 (APC positive, GFP positive) [10]: 9.27% | percentage of cell staining [11]: 96.6% | percent of cells in quadrant Q1 (APC positive, GFP negative) [12]: 97.2% | percentage of cells stained [13]: 96.7% | detectable rate (% of tested specimens positive) [14]: 0% | percentage of cell staining [15]: 97.1% | percentage of cell staining [16]: 99.6% | percent of cells stained [17]: 98.7% | percent of cells stained [18]: 37.7% | detectable rate (% of tested specimens positive) [19]: 0% | percentage of cell staining [20]: 34.7% | detectable rate (% of tested specimens positive) [21]: 0% | percentage of cell staining [22]: 28.4% | detectable rate (% of tested specimens positive) [23]: 0% | percent of cells in quadrant Q1 (APC positive, GFP negative) [24]: 13.1% | percentage of stained cells [25]: 98.2%
Molecule: anti-BST2 monoclonal antibody clone 26F8 (eBioscience)

percentage of cells stained [26]: 70.9% | binding result [27]: binds
B1: LA1 antibody (antibody, IgG1, V domains shown)
VH: EVQLQQSGPELVKPGASVKISCKTSGYTFTEDTMHWVKQSHGKSLEWIGGINPNKGGTSYNQKFKDKATLTVDKSSSTAYMELRSLTSEDSAVYYCATLVDYWGQGTTLTVSS
VL: DIVMTQSQKFMSTSVGDRVSVTCKASQNVGTNVAWYQQKPGQSPKALIHSASYRYSGVPDRFTGSGSGTDFTLTISNVQSEDLAEYFCQQYNSYPLTFGAGTKLELK
notes: Mouse hybridoma antibody, isotype IgG1, kappa; Tested as hybridoma supernatant

percentage of cells stained [26]: 39.8%
B2: BM7 antibody (antibody, IgG1, V domains shown)
VH: QVTLKESGPGILKPSQTLSLTCSFSGFSLSTSGVGVGWIRQPSGKGLEWLAHIWWDDDEYYNPSLKSQLTISKDTSRNQVFLKITSVDTSDTATYYCARRYYGDAMDYWGQGTAVTVSS
VL: DVVMTQTPVSLPVSLGDQASISCRSTQSLVHSNGHTYLHWYLQKPGQSPKLLIYKVSNRFSGVPDRFSGTGSGTDFTLKISRVEAEDLGVYFCSQSTHVPYTFGGGTKLEIK
notes: Tested as hybridoma supernatant
